Patent US9035028B2, “Temperature sensitive conjugate compositions” (Emory University, priority 2010, dated 2015)

Legend:
human platelets = test: Flow cytometry: platelet activation (PAC-1 binding, P-selectin expression); assay type: cell-based; conditions: human diluted PRP, 22° C.
Description: Effects of EMP-scFv on platelet activation were addressed by incubating human diluted PRP with 15 and 50 μg/mL of EMP-scFv at 22° C. for 15 minutes, followed by the addition of either PAC-1 or CD62P antibodies and in-dark incubation for 15 minutes. The reactions were fixed and levels of PAC-1 binding and P-Selectin expression analysed in FACS.

[1] = system: jugular venous thrombosis; test: Model of jugular venous thrombosis; assay type: in vivo, mouse; conditions: 28° C., 15 minutes after the injury, vs control group and 37° C.
Description: C57BL/6 mice weighing from 20-25 g were used. Care and use of laboratory animals followed the national guidelines and were approved by the institutional animal care and ethics committees. Mice were anesthetized with isoflurane, following an intra-peritoneal injection with ketamine (100 mg/kg BW) and xylazine (20 mg/kg BW). The body core temperature was monitored with a digital thermometer, and controlled at either 28° C. or 37° C. with a thermal pad (Temperature Controller TR-200, Fine Science Tools Inc.). Reducing the body temperature to 28° C. was achieved by a gradual drop, at a rate of 0.3-0.4° C./min. The mice on the thermal pad were placed under a dissecting microscope (SZ61, Olympus). An incision of the skin was made directly on the top of trachea, and vessels used for experiment were bluntly isolated from surrounding tissues. […] After rinsing with normal saline, a nano-Doppler flow probe (0.5 VB, Transonic) was then positioned over the vessel and the blood flow rate (ml/min) was measured by a transit-time perivascular flow-meter (TS420, Transonic Systems Inc.). […] Jugular vein blood flow was recorded 15 minutes after induction of injury in mice pre-treated with EMP-scFv, eptifibatide or saline. The blood flow recorded at 1 minute was considered as the initial blood flow rate. […]

[2] = Circular dichroism (CD) spectra and thermal transition profile; assay type: physicochemical
Description: The mathematical fitting of the CD data allowed the determination of the transition temperature (Tt) resulting from conformational change of EMP as the temperature is increased. The mathematical fitting of the CD data to the van't Hoff equation allowed the determination of the transition temperature (Tt) resulting from conformational change of EMP and EMP-scFv as the temperature is increased.
Circular dichroism (CD) spectra were recorded on a Jasco J-810 spectropolarimeter equipped with a PFD-425S Peltier temperature control unit in 0.1 cm sealed quartz cells at concentrations of 7.5 μM (EMP), 8.4 μM (scFv) and 4.1 μM (EMP-scFv) in 50 mM sodium phosphate buffer, pH 7.4. Temperature/wavelength CD-scans were performed within the temperature range from 5° C. to 35° C. with equilibration for 10 min at each temperature. Spectra were obtained from 260 to 190 nm at a resolution of 0.5 nm and at a scanning speed of 50 nm/min. The CD curves represented the average of five measurements and were smoothed using the means-movement method on the interval analysis of the spectral manager program. CD data are reported as mean residue ellipticity ([θ], deg cm^2 dmol^−1). Thermal transition curves were plotted by the mean residue ellipticity as a function of temperature for the disappearance of the random coil and the appearance of the β-turn structure.

[3] = target: T1, GPIIb/IIIa on human platelets (Homo sapiens, UniProt P05106+P08514); test: Flow cytometry: inhibition of fibrinogen binding to human platelets; assay type: cell-based
T1 construct: endogenous in cells
Description: Human blood was collected by venipuncture with a 21-gauge butterfly needle from healthy volunteers and anticoagulated with citric acid. Platelet-rich plasma (PRP) was obtained by centrifugation (GS-6R centrifuge, Beckman Coulter) at 100×g at room temperature for 10 min.
(§1) Human PRP was diluted 1/50 in modified Tyrode's buffer containing 2 mM MgCl2 and 2 mM CaCl2. Platelets were either activated by addition of 20 μM ADP, or non activated, followed by the incubation with 15 and 50 μg/mL EMP-scFv fusion protein or EMP at 22° C., 32° C. and at 37° C. for 15 min. Mouse platelets were either pre-activated for 10 min by addition of 0.1 U/mL thrombin (Enzyme Research Laboratories), or non activated, before the incubation with 15 and 50 μg/mL of EMP-scFv fusion protein at 22° C., 32° C. or 37° C. for 15 min. In both, human and mouse samples, EMP-scFv was detected via 15 min in-dark incubation with secondary antibody (Penta-His Alexa Fluor 488, Qiagen) directed against the His(6)-tag of the single-chain antibody.
Fibrinogen binding to human activated platelets in the presence of EMP-scFv was determined with a polyclonal rabbit anti-human fibrinogen FITC-labelled antibody (DakoCytomation), while the effects of EMP-scFv on fibrinogen binding to mouse platelets were determined using FITC-conjugated rabbit anti-fibrinogen polyclonal antibody (Cemfret). Fluorescence detection was performed as described above. Samples were measured in a FACSCalibur® flow cytometer (Becton Dickinson), after fixation with 1× CellFIX® (Becton Dickinson).

[4] = target: T2, GPIIb/IIIa on mouse platelets (Mus musculus, UniProt O54890+Q9QUM0); test: Flow cytometry: binding to mouse platelets
T2 construct: endogenous in cells
T2 sequence (Q9QUM0 32-1033): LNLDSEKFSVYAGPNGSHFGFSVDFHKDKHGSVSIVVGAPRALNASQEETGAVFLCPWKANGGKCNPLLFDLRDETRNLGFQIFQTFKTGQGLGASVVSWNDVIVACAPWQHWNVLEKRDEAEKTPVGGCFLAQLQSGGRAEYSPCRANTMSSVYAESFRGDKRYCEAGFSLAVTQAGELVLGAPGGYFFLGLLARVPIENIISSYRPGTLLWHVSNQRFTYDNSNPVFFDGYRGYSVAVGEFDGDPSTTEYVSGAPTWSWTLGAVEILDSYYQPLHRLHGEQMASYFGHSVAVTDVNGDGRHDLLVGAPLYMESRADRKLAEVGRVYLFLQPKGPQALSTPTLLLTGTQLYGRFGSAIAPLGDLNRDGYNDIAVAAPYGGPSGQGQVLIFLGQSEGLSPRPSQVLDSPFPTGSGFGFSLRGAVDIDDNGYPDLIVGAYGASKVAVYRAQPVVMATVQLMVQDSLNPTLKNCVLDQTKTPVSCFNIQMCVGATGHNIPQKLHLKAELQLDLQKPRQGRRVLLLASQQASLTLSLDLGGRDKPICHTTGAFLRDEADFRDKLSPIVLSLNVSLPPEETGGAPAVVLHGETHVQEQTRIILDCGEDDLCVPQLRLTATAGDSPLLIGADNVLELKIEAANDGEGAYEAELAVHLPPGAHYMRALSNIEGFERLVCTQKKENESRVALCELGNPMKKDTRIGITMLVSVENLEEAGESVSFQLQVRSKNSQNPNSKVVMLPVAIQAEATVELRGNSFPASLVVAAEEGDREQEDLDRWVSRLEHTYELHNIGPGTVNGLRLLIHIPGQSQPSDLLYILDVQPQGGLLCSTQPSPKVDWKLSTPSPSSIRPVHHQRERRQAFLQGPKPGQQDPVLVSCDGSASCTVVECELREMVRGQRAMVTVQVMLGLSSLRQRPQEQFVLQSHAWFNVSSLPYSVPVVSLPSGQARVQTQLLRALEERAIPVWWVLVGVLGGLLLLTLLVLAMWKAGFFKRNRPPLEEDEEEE
T2 sequence (O54890 26-787): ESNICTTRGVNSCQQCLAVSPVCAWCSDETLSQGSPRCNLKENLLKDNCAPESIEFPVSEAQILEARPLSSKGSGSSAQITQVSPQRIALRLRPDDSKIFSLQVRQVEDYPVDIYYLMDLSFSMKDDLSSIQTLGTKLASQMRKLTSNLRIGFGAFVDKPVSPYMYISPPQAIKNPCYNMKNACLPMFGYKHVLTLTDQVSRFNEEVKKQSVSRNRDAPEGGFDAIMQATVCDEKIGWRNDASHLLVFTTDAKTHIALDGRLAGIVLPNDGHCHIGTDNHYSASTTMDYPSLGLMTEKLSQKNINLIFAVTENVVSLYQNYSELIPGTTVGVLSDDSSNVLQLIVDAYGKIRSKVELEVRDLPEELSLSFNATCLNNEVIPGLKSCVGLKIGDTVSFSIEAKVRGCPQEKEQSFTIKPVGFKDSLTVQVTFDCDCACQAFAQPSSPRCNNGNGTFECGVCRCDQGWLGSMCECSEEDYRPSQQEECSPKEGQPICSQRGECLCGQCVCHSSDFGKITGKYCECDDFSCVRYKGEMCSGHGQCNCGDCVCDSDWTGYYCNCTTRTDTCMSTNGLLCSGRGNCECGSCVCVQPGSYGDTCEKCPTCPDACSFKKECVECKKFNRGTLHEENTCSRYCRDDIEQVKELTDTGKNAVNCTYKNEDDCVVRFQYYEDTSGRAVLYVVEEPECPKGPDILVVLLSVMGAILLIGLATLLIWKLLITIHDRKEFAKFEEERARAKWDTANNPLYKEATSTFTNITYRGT
Description: Mouse blood was collected by intracardiac puncture with a 27-gauge needle from C57BL/6 mice and anticoagulated with non-fractionated heparin (20 U/mL). A volume of 50 μl was washed with 1 mL modified Tyrode's buffer (150 mM NaCl, 2.5 mM KCl, 1.2 mM NaHCO3, 0.1% BSA, 0.1% Glucose) and centrifuged at 1200×g for 6 min. The supernatant was discarded and the pellet was resuspended in 1 mL modified Tyrode's buffer containing 2 mM MgCl2 and 2 mM CaCl2.
as §1

B1: EMP-scFv: fusion of elastin mimetic polypeptide (EMP) and activation-specific GPIIb/IIIa-blocking single-chain antibody; 704 amino acids, approximately 70 kDa (protein)
chain: MAVPAVGIPAVGIPAVGIPAVGIPAVGIPAVGIPAVGIPAVGIPAVGIPAVGIPAVGIPAVGIPAVGIPAVGIPAVGIPAVGIPAVGIPAVGIPAVGIPAVGIPAVGIPAVGIPAVGIPAVGIPAVGIPAVGIPAVGIPAVGIPAVGIPAVGIPAVGIPAVGIPAVGIPAVGIPAVGIPAVGIPAVGIPAVGIPAVGIPAVGIPAVGIPAVGIPAVGIPAVGIPAVGIPAVGIPAVGIPAVGIPAVGIPAVGIPAVGIPAVGIPAVGIPAVGIPAVGIPAVGIPAVGIPAVGIPAVGIPAVGIPAVGIPAVGIPAVGIPAVGIPAVGIPAVGIPAVGIPAVGIPAVGIPAVGIPAVGIPAVGIPAVGIPAVGIPAVGIPAVGIPAVGIPAVGIPAVGIPAVGIPGGGGSMMAEVQLVESGGGLVQPGGSLRLSCAASGFMFSRYAMSWVRQAPGKGPEWVSGISGSGGSTYYADSVKGRFTVSRDNSKNTLYLQMNSLRAEDTAVYYCARIFTHRSRGDVPDQTSFDYWGQGTLVTVSSGSASAPKLEEGEFSEARVSSELTQDPAVSVALGQTVRITCQGDSLRNFYASWYQQKPGQAPTLVIYGLSKRPSGIPDRFSASSSGNTASLTITGAQAEDEADYYCLLYYGGGQQGVFGGGTKLTVLRQPKAAPSVTLFPPSSAAAGSEQKLISEEDLNSHHHHHH
- platelet activation: P-selectin expression (human platelets): no effect
- platelet activation: binding of PAC-1 (human platelets): no effect
- percentage of initial blood flow [1]: significantly higher levels of blood flow
- transition temperature (Tt), disappearance of the random coil ([2]; CD data at 200 nm): 15 °C
- transition temperature (Tt), appearance of the β-turn structure ([2]; CD data at 215 nm): 28 °C
- temperature at which structural change and hydrophobic collapse were completed ([2]; thermal transition curve): higher than 35 °C
- fibrinogen binding to human activated platelets ([3]; 22° C., concentration-dependent): significantly reduced
- fibrinogen binding to human activated platelets ([3]; 32° C.): inhibit the binding of fibrinogen
- fibrinogen binding to human activated platelets ([3]; 37° C.): not inhibited
- binding to activated murine platelets ([4]; 22° C., mouse whole blood): binds
- binding to resting mouse platelets ([4]; either 22° C. or 37° C.): did not bind
